Measurements: article doi:10.1101/431791

Biological target: AUR1-mRFP (A. thaliana) (UniProt Q9M077)
Assay: FRET or BRET

Chain of UniProt Q9M077 (Q9M077 whole entry): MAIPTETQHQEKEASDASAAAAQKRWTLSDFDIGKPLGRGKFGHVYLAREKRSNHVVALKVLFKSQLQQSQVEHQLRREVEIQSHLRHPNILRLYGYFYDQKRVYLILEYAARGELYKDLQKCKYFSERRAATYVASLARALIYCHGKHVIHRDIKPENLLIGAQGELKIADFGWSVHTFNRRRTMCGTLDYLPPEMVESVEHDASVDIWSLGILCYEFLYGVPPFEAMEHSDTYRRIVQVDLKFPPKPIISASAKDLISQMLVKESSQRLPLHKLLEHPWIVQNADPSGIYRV

donor (GFP) fluorescence lifetime with AUR1-RFP [ns] | Substance
1.9 | TPXL2-GFP (natural protein)
1.9 | TPXL3-GFP (natural protein)
